In patent US20230357422A1 (published 2023):
Substitutions are numbered along the chain they refer to.

B1: A-Na-16 (Fc fusion)
chain: QVQLVESGGGLVPPGESLRLSCAASGAIFRINTGAWYRQAPGKQRELVASLTTYGKTTYADFVKGRFTISRDDARNTVSLQMNSLKPEDTAIYYCHIGPEPRYGYWGQGTQVTVSSTHTCPPCPAPEAAGGPSVFLFPPKPKDTLMISRTPEVTCVVVDVSHEDPEVKFNWYVDGVEVHNAKTKPREEQYNSTYRVVSVLTVLHQDWLNGKEYKCKVSNKALPAPIEKTISKAKGQPREPQVYTLPPSREEMTKNQVSLTCLVKGFYPSDIAVEWESNGQPENNYKTTPPVLDSDGSFFLYSKLTVDKSRWQQGNVFSCSVMHEALHNHYTQKSLSLSPG
B2: A-Na-18 (Fc fusion)
chain: B1 chain with R75E
B3: A-Ye-04 (Fc fusion)
chain: B1 chain with V5Q, R75K
B4: L-Yr-13&14-13 (Fc fusion)
chain: QVQLQESGGGLVQAGDSLRLSCAASGSTFSITAMGWYRQPPGKQRELVASIITGDGDTNYADSVKGRFTISRDNAKNTMYLQMNSLKPEDTAVYYCYARTGYGSSWLMGHEYDYWGQGTQVTVSSTHTCPPCPAPEAAGGPSVFLFPPKPKDTLMISRTPEVTCVVVDVSHEDPEVKFNWYVDGVEVHNAKTKPREEQYNSTYRVVSVLTVLHQDWLNGKEYKCKVSNKALPAPIEKTISKAKGQPREPQVYTLPPSREEMTKNQVSLTCLVKGFYPSDIAVEWESNGQPENNYKTTPPVLDSDGSFFLYSKLTVDKSRWQQGNVFSCSVMHEALHNHYTQKSLSLSPG
B5: L-Yr-13&14-02 (Fc fusion)
chain: QVQLQESGGGLVQAGGSLRLSCAASGGTFSITAMGWYRQAPGQQRELVAAIASGDGATNYADFVKGRFTISRDNAKNTMFLQMNSLKPEDSAVYYCYARTGYGSSWPMGHEYDYWGQGTQVTVSSTHTCPPCPAPEAAGGPSVFLFPPKPKDTLMISRTPEVTCVVVDVSHEDPEVKFNWYVDGVEVHNAKTKPREEQYNSTYRVVSVLTVLHQDWLNGKEYKCKVSNKALPAPIEKTISKAKGQPREPQVYTLPPSREEMTKNQVSLTCLVKGFYPSDIAVEWESNGQPENNYKTTPPVLDSDGSFFLYSKLTVDKSRWQQGNVFSCSVMHEALHNHYTQKSLSLSPG
B6: L-Yr-13&14-07 (Fc fusion)
chain: B4 chain with S30G, S50A, T53M, G54S, A61Q, P88L, S105G, W106R
B7: L-Yr-13&14-08 (Fc fusion)
chain: QVQLQESGGGLVQPGGSLRLSCAASGSTFSISAMGWYRQPPGKQRELVALIIMSDGDTNYQDSVKGRFTISRDNANNTMYLQMNSLKLEDTAVYYCYARTGYGSGRLMGHEYDYWGQGTQVTVSSTHTCPPCPAPEAAGGPSVFLFPPKPKDTLMISRTPEVTCVVVDVSHEDPEVKFNWYVDGVEVHNAKTKPREEQYNSTYRVVSVLTVLHQDWLNGKEYKCKVSNKALPAPIEKTISKAKGQPREPQVYTLPPSREEMTKNQVSLTCLVKGFYPSDIAVEWESNGQPENNYKTTPPVLDSDGSFFLYSKLTVDKSRWQQGNVFSCSVMHEALHNHYTQKSLSLSPG
B8: L-Yr-13&14-09 (Fc fusion)
chain: B4 chain with D16G, R19K, T32S, P40A, S50A, I52V, T53I
B9: L-Yr-13&14-10 (Fc fusion)
chain: B5 chain with G27S, P107L
B10: L-Yr-13&14-11 (Fc fusion)
chain: B7 chain with P14A, G16D, S32T, L50A, N76K
B11: L-Yr-13&14-12 (Fc fusion)
chain: B4 chain with S50A, T53M, G54S, A61Q, S105G, M108E
B12: L-Yr-13&14-17 (Fc fusion)
chain: QVQLQESGGGLVQAGGSLRLSCAASRSIFSSYVMAWYRQAPGKERELVALIRYGGSTDYADSVKGRFTISRDNSKNTLILQMNSLKPEDTAMYYCAASKSAYIFDDRDYWGQGTQVTVSSTHTCPPCPAPEAAGGPSVFLFPPKPKDTLMISRTPEVTCVVVDVSHEDPEVKFNWYVDGVEVHNAKTKPREEQYNSTYRVVSVLTVLHQDWLNGKEYKCKVSNKALPAPIEKTISKAKGQPREPQVYTLPPSREEMTKNQVSLTCLVKGFYPSDIAVEWESNGQPENNYKTTPPVLDSDGSFFLYSKLTVDKSRWQQGNVFSCSVMHEALHNHYTQKSLSLSPG
B13: A-Ye-03 (Fc fusion)
chain: QVQLQESGGGLVQAGGSLRLSCAASGFTLDYYAIGWFRQAPGKEREGVLCISSSGETTYYSDSVKGRFTISRDNAKNKVYLQMNSLKPEDTAVYYCGAELLGSGEGCYVWSRDGSYWGQGTQVTVSSTHTCPPCPAPEAAGGPSVFLFPPKPKDTLMISRTPEVTCVVVDVSHEDPEVKFNWYVDGVEVHNAKTKPREEQYNSTYRVVSVLTVLHQDWLNGKEYKCKVSNKALPAPIEKTISKAKGQPREPQVYTLPPSREEMTKNQVSLTCLVKGFYPSDIAVEWESNGQPENNYKTTPPVLDSDGSFFLYSKLTVDKSRWQQGNVFSCSVMHEALHNHYTQKSLSLSPG
B14: A-Na-19 (Fc fusion)
chain: B1 chain with R75K, S79Y
B15: A-Ye-13 (Fc fusion)
chain: EVQLQESGGGLVQAGGSLRLSCAASGFTFDDYAIGWFRQAPGKEREGVLCISSSGGSTYYADSVKGRFTISRDNAKNTVYLQMTNLKPEDTAVYLCGAPRDCSYYTGDDYWGQGTQVTVSSTHTCPPCPAPEAAGGPSVFLFPPKPKDTLMISRTPEVTCVVVDVSHEDPEVKFNWYVDGVEVHNAKTKPREEQYNSTYRVVSVLTVLHQDWLNGKEYKCKVSNKALPAPIEKTISKAKGQPREPQVYTLPPSREEMTKNQVSLTCLVKGFYPSDIAVEWESNGQPENNYKTTPPVLDSDGSFFLYSKLTVDKSRWQQGNVFSCSVMHEALHNHYTQKSLSLSPG
B16: A-Ye-20 (Fc fusion)
chain: B15 chain with E1Q, G107S
B17: A-Ye-25 (Fc fusion)
chain: B15 chain with E1Q, A14V, V64L, Y104L
B18: A-Ye-27 (Fc fusion)
chain: QVQLQESGGGLVQPGGSLRLSCAASGFSLGLYAIGWFRQAPGKEREWVSCIMSSDSSAYYADSVKGRFTVSRDNAKNTVYLQMTNLKPEDTAVYLCGAPRDCSRYSSDDYWGQGTQVTVSSTHTCPPCPAPEAAGGPSVFLFPPKPKDTLMISRTPEVTCVVVDVSHEDPEVKFNWYVDGVEVHNAKTKPREEQYNSTYRVVSVLTVLHQDWLNGKEYKCKVSNKALPAPIEKTISKAKGQPREPQVYTLPPSREEMTKNQVSLTCLVKGFYPSDIAVEWESNGQPENNYKTTPPVLDSDGSFFLYSKLTVDKSRWQQGNVFSCSVMHEALHNHYTQKSLSLSPG
B19: A-Ye-14 (Fc fusion)
chain: QVQLQESGGGLVQPGGSLRLSCAASGFSLGLYAIGWFRQAPGKEREWVSCIMSSDSSAYYADSVKGRFTVSRDNAKNTVYLQMNRLKPEDTAVYYCAAPQSDCFHYSENDYWGQGTQVTVSSTHTCPPCPAPEAAGGPSVFLFPPKPKDTLMISRTPEVTCVVVDVSHEDPEVKFNWYVDGVEVHNAKTKPREEQYNSTYRVVSVLTVLHQDWLNGKEYKCKVSNKALPAPIEKTISKAKGQPREPQVYTLPPSREEMTKNQVSLTCLVKGFYPSDIAVEWESNGQPENNYKTTPPVLDSDGSFFLYSKLTVDKSRWQQGNVFSCSVMHEALHNHYTQKSLSLSPG
B20: A-Ye-19 (Fc fusion)
chain: B19 chain with P14A
B21: A-Ye-21 (Fc fusion)
chain: B19 chain with G30D, L31Y, V70I, T78L, Q82R, R85S, A97T, Q100R, S107G
B22: A-Ye-22 (Fc fusion)
chain: B19 chain with P14A, G30D, L31Y, M52T, S53A, V70I, Q82R, R85S, Q100R, S107G

Biological target: T1, 4-1BB antigen (human, UniProt Q07011 24-186, limits assumed)
T1 construct: also called human 4-1BB antigen; human 4-1BB protein
Experiment: BLI (ForteBio), antibody on AHQ sensor, 100 nM 4-1BB antigen, 1:1 model
Description: ForteBio affinity determination was performed according to the existing method (Estep, P et al., Solution-based measurement of high-throughput antibody-antigen affinity and epitope classification, MAbs, 2013.5(2):p. 270-8). Briefly, the sensor was equilibrated offline for 30 min in the assay buffer, then the baseline was established by detection online for 60 s, and the purified antibody obtained as described above was loaded onto the AHQ sensor online. Then, the sensor was put into 100 nM 4-1BB antigen to act for 5 minutes, and the sensor was transferred to PBS and dissociated for 5 minutes. Analysis of kinetics was performed using a 1:1 binding model.

T1 sequence (Q07011 24-186 limits assumed): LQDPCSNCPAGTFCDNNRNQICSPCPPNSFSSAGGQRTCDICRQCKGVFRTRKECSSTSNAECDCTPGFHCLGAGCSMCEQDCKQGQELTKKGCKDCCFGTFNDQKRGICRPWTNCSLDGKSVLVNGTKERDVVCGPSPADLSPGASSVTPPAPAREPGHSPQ

Kd [nM] | Binder
20.8 | B1
17.5 | B2
222 | B3
23.2 | B4
44.7 | B5
14.3 | B6
20.5 | B7
21 | B8
46 | B9
21.6 | B10
30.8 | B11
25.1 | B12
28.3 | B13
15.1 | B14
11.9 | B15
26.8 | B16
13.5 | B17
7.55 | B18
14.5 | B19
13 | B20
23 | B21
22.6 | B22
